How the values were obtained:
Type in all cases: cell-based
[1] = system: sperm; assay: Toxicity on sperm (sperm vitality)
Description: Forty μL of sperm were mixed with 20 μL of eosin 1% diluted in NaCl 9/1000 and 20 μL of nigrosine 10% diluted in NaCl 9/1000. Sperm were then layered onto glass slide and dried. A minimum of 100 spermatozoa was analyzed for each assay.

[2] = system: sperm; assay: Sperm motility tests by the applicants (comparison with papaverine, duration of effect, synthetic versus venom peptide)
[3] = system: human ejaculated sperm; assay: Motility of fresh and frozen human ejaculated sperm incubated with the peptide (Example 5, FIG. 5)
Description: FIG. 5: Measurement of % motile cells and progressive cells after incubation of fresh (left hand panel) and frozen (right hand panel) human ejaculated sperm with (7.8 kDa peptide) or without (Control) the peptide according to SEQ ID NO. 1. Motile sperm and progressive sperm were characterized by VAP>1 μm/s and VAP>30 μm/s and STR>70%, respectively. STR=VSL/VAP. Statistical analyses were performed with SigmaPlot. t tests were used to compare the effects of La1-like peptide on sperm motility parameters. Data represent mean±SEM. Statistical tests with a 2-tailed P values≤0.05 were considered significant.
(§1) Human sperm were obtained from patient consulting at the fertility department of Grenoble, following approval by the ethical committee and informed consent from the patients. All patients gave an informed consent for the conservation of the remnant sperm in the Germetheque biobank and their use in studies on human fertility in accordance with the Helsinki Declaration of 1975 on human experimentation. The Germetheque Scientific Committee approved the present study design. Ejaculate was liquefied at 37° C. for 30 min and sperm were washed twice in Sperm Preparation Medium (Origio, Målov, Denmark) at 500 g for 5 min. Concentration is then adjusted for CASA analysis. Sperm were also frozen with SpermFreeze (Fertipro NV, Beernem, Belgium) for further analysis as frozen sperm.
(§2) After 10 minutes incubation with the peptide according to SEQ ID NO. 1 (natural, or synthesized), the sperm suspension was immediately placed onto an analysis chamber (Leja Products B.V., Netherlands) of 100 μm depth for mouse sperm and 20 μm depth for human, NHP and bovine sperm, and kept at 37° C. for microscopic quantitative study of sperm movement. Sperm motility parameters were measured at 37° C. using a sperm analyzer (Hamilton Thorn Research, Beverley). The settings employed for analysis were as follows for human, NHP, bovine and mouse respectively: acquisition rate (60;60;60;60) Hz; number of frames: (30;20;30;45); minimum contrast: (80;80;80;50); minimum cell size: (3;4;5;5); low static-size gate: (0,85;0,79;0,1;0,3); high static-size gate: (4,24;2,52;3,4;1,95); low static-intensity gate: (0,39;0,62;0,3;0,5); high static-intensity gate: (1,4;1,4;1,7;1,3); minimum elongation gate: (0;2;8;0); maximum elongation gate: (85;50;97;87); magnification factor: (1,89;1,89;1,89;0,7). The motility parameters measured were curvilinear velocity (VCL) and amplitude of lateral head displacement (ALH). A minimum of 100 motile spermatozoa was analyzed for each assay. Motile sperm were defined by VAP>(1;1;1;1) and progressive sperm were defined by VAP>(25;25;50;30) and STR>(80;80;70;70).

[4] = system: human sperm; assay: Velocity test on human spermatozoa treated with the peptide (computer-assisted motility analysis, CASA)
Excerpt: as §1, §2

[5] = system: testicular sperm from macaca; assay: Motility activation in testicular sperm from Macaca (CASA); conditions: non-human primate testicular sperm, FIGS. 3 and 4
Description: FIG. 3: Measurement of motile cells and progressive cells after incubation of testicular sperm from macaca (non-human primate) with (7.8 Kda peptide) and without (Control) peptide SEQ ID NO. 1. Motile sperm and progressive sperm were characterized by VAP>1 μm/s and VAP>30 μm/s and STR>70%, respectively. STR=VSL/VAP. Statistical analyses were performed with SigmaPlot. t tests were used to compare the effects of La1-like peptide on sperm motility parameters. Data represent mean±SEM. Statistical tests with a 2-tailed P values 0.05 were considered significant. […]
After 10 minutes incubation with the peptide according to SEQ ID NO. 1 (natural, or synthesized), the sperm suspension was immediately placed onto an analysis chamber (Leja Products B.V., Netherlands) of 100 μm depth for mouse sperm and 20 μm depth for human, NHP and bovine sperm, and kept at 37° C. for microscopic quantitative study of sperm movement. Sperm motility parameters were measured at 37° C. using a sperm analyzer (Hamilton Thorn Research, Beverley). […] The motility parameters measured were curvilinear velocity (VCL) and amplitude of lateral head displacement (ALH). A minimum of 100 motile spermatozoa was analyzed for each assay. […]
Macaca testes were collected after euthanasia. […] 1, sperm motility was measured using the same conditions as those in Example 2.

[6] = system: mouse oocytes and capacitated sperm; assay: Fertilization study in mice (in vitro fertilization, 2-cell embryos scored)
Description: Eggs were collected from mature OF1 females, synchronized with 5 units of pregnant mare serum gonadotrophin (PMSG) and 5 units of human chorionic gonadotrophin (hCG). Sperm were capacitated for 55 minutes in M16 2% BSA (37° C., 5% CO2) and introduced into droplets containing oocytes. The active peptide was introduced into droplets at the same time. Oocytes were incubated with 1.5×10^5 to 5×10^5 capacitated sperm/ml (37° C., 5% CO2) in M16 medium and unbound sperm were washed away after 4 hours incubation. Twenty-four hours after fertilization, the different stages, i.e. unfertilized oocytes (including aborted embryos and corresponding to fragmented oocytes or oocytes blocked after the extrusion of the second polar body) and 2-cell embryos (as an indication of successful fertilization) were scored.

[7] = fresh human sperm samples, FIG. 5 left-hand panel
[8] = frozen human sperm samples, FIG. 5 right-hand panel

B1: La-1-like peptide (peptide)
chain: SGESCKAGKFTVLVGHQQNDKSTCTLYKCLNFKRKYALQISSCADVDLKSGCRQVPGAASANFPECCPMVICK
modifications: S Maurus palmatus
toxicity on sperm [1]: no toxicity | duration of effect on sperm motility [2]: long lasting effect | comparison with papaverine ([2]; compared to papaverine): superiority | biological activity of synthesized peptide versus peptide isolated from venom ([2]; peptide synthesized using Native Chemical Ligation Strategy): retains the biological activity | non-progressive motility [3, 7]: increases | progressive motility [3, 7]: increases | non-progressive motility [3, 8]: increases | progressive motility [3, 8]: increases | effect on motility, frozen samples versus fresh samples ([3]; human sperm): greater for the frozen samples | sperm motility after incubation ([4]; human sperm, incubation with peptide, FIG. 2B): increase in sperm motility | increase in lateral amplitude (ALH) ([4]; initial lateral amplitude of less than 3.5 μm versus higher initial ALH values): greater increases | increase in motility (VAP) ([4]; sperm having an initial VAP of 60 μm/s): about 20% | increase in path velocity (VAP) ([4]; sperm having low initial path velocity (VAP)): up to 80% | motility activation with respect to initial track speed (VCL) ([4]; sperm with low initial track speed compared to higher initial track speeds, FIG. 2B upper left panel): higher motility activation | non-progressive velocity of sperm cells [5]: increase | progressive velocity of sperm cells [5]: increase | toxicity [6]: not toxic | increase of rate of fertilization compared to the control ([6]; number of embryos at the two cell stage): approximately 20% | embryo development ([6]; two cell stage): does not prevent embryo development

From US10729745B2, “Use of La1-like peptide isolated from maurus palmatus venom as an activator of sperm motility in mammals” (IMV Technologies, priority 2016, dated 2020)
